In US20130052176, “APTAMER FOR NGF AND USE THEREOF” (SHIONOGI & CO., LTD, published 2013) one finds IC50 data, which are given here for 15 molecules.

Data set [1] concerns the target T1, NGF (nerve growth factor) (human, UniProt P01138 P01138:122-241). Description: cell_activity; neurite outgrowth, NGF 0.38 nM; SPR binding; TF-1 IC50 2.8 nM. The conditions noted are these: tags: amine-coupled to CM5 chip in SPR; soluble in cell assays; chain copies: 2. The protocol: (§1) The neurite outgrowth inhibitory activity of the aptamer obtained in Example 1 was evaluated by using Neuroscreen-1 cell, which is a subclone of PC-12 cells.
(§2) The cells (2500 cells per well) were cultured for one day in an RPMI-1640 medium containing 2.5% horse serum and 1.25% fetal bovine serum in a 96 well flat-bottom plate coated with collagen type IV. […] Two days later, the cytoplasm and nuclei were stained using Cellomics Neurite Outgrowth Kit (manufactured by Thermo Scientific), and neurite length per cell was measured by Cellomics ArrayScan VTI (manufactured by Thermo Scientific). With the neurite length per cell obtained by the addition of NGF alone as inhibitory activity 0%, and that of the cell obtained by NGF free culture for 2 days as inhibitory activity 100%, the inhibitory activity of the aptamer was calculated from the neurite length per cell obtained by culturing with the addition of NGF and the aptamer in mixture. When the inhibitory activity was 0% or below, ‘0%’ is indicated.
(SPR reads the build-up and loss of mass on a sensor chip optically.)

For data set [2], the target named is T1, NGF (nerve growth factor). Kind of data set: cell_activity; neurite outgrowth, NGF 1.1 nM; SPR binding; TF-1 IC50 1.4 nM. The note with it: tags: amine-coupled to CM5 chip in SPR; soluble in cell assays; chain copies: 2. The protocol: as §1, §2
Data set [3] deals with T1, NGF (nerve growth factor). Description: cell_activity; neurite outgrowth, NGF 1.1 nM; SPR binding; TF-1 IC50 3.2 nM. The conditions noted are these: tags: amine-coupled to CM5 chip in SPR; soluble in cell assays; chain copies: 2. The protocol:
as §1, §2

Data set [4] has as its target T1, NGF (nerve growth factor). Description: cell_activity; neurite outgrowth, NGF 1.1 nM; SPR binding; TF-1 IC50 >30 nM. The note with it: tags: amine-coupled to CM5 chip in SPR; soluble in cell assays; chain copies: 2. The protocol:
as §1, §2

Data set [5] concerns the target T1, NGF (nerve growth factor). Kind of data set: cell_activity; neurite outgrowth, NGF 0.38 nM; SPR binding; TF-1 IC50 1.0 nM. The note with it: tags: amine-coupled to CM5 chip in SPR; soluble in cell assays; chain copies: 2. The method, then: as §1, §2
The target in data set [6] is T1, NGF (nerve growth factor). Kind of data set: cell_activity; neurite outgrowth, NGF 0.38 nM; SPR binding; TF-1 IC50 0.154 nM. The conditions noted are these: tags: amine-coupled to CM5 chip in SPR; soluble in cell assays; chain copies: 2. The method, then: as §1, §2
The target in data set [7] is T1, NGF (nerve growth factor). Kind of data set: cell_activity; neurite outgrowth, NGF 1.1 nM; TF-1 IC50 <1.0 nM. The conditions noted are these: tags: human NGF; chain copies: 2. The protocol: as §1, §2
Data set [8] has as its target T1, NGF (nerve growth factor). Description: cell_activity; neurite outgrowth, NGF 0.38 nM; TF-1 IC50 0.044 nM. The note with it: tags: human NGF; chain copies: 2.
In data set [9] the target is T1, NGF (nerve growth factor). Kind of data set: cell_activity; neurite outgrowth, NGF 0.38 nM; TF-1 IC50 0.146 nM. The note with it: tags: human NGF; chain copies: 2. The protocol:
as §1, §2

Data set [10] has as its target T1, NGF (nerve growth factor). Description: cell_activity; neurite outgrowth, NGF 0.38 nM; TF-1 IC50 0.285 nM. The conditions noted are these: tags: human NGF; chain copies: 2. The method, then: as §1, §2
Data set [11] concerns the target T1, NGF (nerve growth factor). Kind of data set: cell_activity; neurite outgrowth, NGF 0.38 nM; TF-1 IC50 0.064 nM. The conditions noted are these: tags: human NGF; chain copies: 2. The protocol: as §1, §2
For data set [12], the target named is T1, NGF (nerve growth factor). Kind of data set: cell_activity; neurite outgrowth, NGF 0.38 nM; TF-1 IC50 0.069 nM. The conditions noted are these: tags: human NGF; chain copies: 2. The method, then:
as §1, §2

The target in data set [13] is T1, NGF (nerve growth factor). Kind of data set: cell_activity; neurite outgrowth, NGF 0.38 nM; TF-1 IC50 0.055 nM. The conditions noted are these: tags: human NGF; chain copies: 2. The method, then:
as §1, §2

Data set [14] deals with T1, NGF (nerve growth factor). Description: cell_activity; neurite outgrowth, NGF 0.38 nM; TF-1 IC50 0.218 nM. The note with it: tags: human NGF; chain copies: 2. The method, then:
as §1, §2

Data set [15] concerns the target T1, NGF (nerve growth factor). Description: cell_activity; neurite outgrowth, NGF 0.38 nM; TF-1 IC50 0.176 nM. The note with it: tags: human NGF; chain copies: 2. The protocol:
as §1, §2

T1 sequence (P01138 122-241, one chain of several): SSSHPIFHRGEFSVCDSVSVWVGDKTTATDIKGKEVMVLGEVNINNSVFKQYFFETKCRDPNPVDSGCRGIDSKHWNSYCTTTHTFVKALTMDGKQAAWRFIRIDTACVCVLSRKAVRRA

B1: aptamer ID 30 (ssRNA)
RNA: GGGAGACUCGCAGAGUUGAAAGAAACCCAAAUAGUGUGCGCAC
modifications: 2'-F at all pyrimidines
In general, IC50 refers to the concentration that inhibits the measured activity by half. Low values mean greater potency in that assay, high ones weaker potency in that assay. Regarding B1, the 50% inhibitory concentration (IC50) in [1] is under 0.3 nM.

B2: aptamer ID 28 (ssRNA)
RNA: GGGAGACUCGCAGAGUUGAAAGAAACCCAAAUAAGUGUGCGCAC
modifications: 2'-F at all pyrimidines
The molecule B2 registered a half-maximal inhibitory concentration (IC50) in data set [2] of under 1 nM.

B3: aptamer ID 27 (ssRNA)
RNA: GGGAGACUCGCAGAGUUGAAAGAAACCCAAAUAAAGUGUGCGCACA
modifications: 2'-F at all pyrimidines
In data set [3], B3 gave an IC50 of under 1 nM.

B4: aptamer ID 43 (ssRNA)
RNA: GGGAGAACUUCGACCAGAAGUCGAUAACGAACAAAACUCCCAAAUAUGUGCGCAUACA
modifications: 2'-F at all pyrimidines
On to B4, for which the IC50 in data set [4] was under 3 nM.

B5: aptamer ID 29 (ssRNA)
RNA: GGGAGACUCGCCAGAGUUGAAAGAAACCCAAAUAGUGUGCGCAC
modifications: 2'-F at all pyrimidines
The molecule B5 displayed an IC50 in [5] of under 0.3 nM.

B6: aptamer ID 29(1) (ssRNA)
RNA: B5 RNA
modifications: 2'-F pyrimidines; 2'-OMe purines except 2'-OH at 3,19,20; 5' idT and 3' idT
As for B6, in data set [6], the IC50 was 0.058 nM.

B7: aptamer ID 26 (ssRNA)
RNA: GGGAGACUCGCCAGAGUUGAAAGAAACCCAAAUAAGUGUGCGCAC
modifications: 2'-F all pyrimidines
Turning to B7, the half-maximal inhibitory concentration (IC50) in data set [7] was under 1 nM.

B8: aptamer ID 26(10) (ssRNA)
RNA: B7 RNA
modifications: 5' and 3' idT; 2'-F all pyrimidines; 2'-OMe all purines except ribo g3,g5,g19,a20,a21,a22,a24
On to B8, for which, in [8], the half-maximal inhibitory concentration (IC50) is 0.047 nM.

B9: aptamer ID 26(45) (ssRNA)
RNA: B7 RNA
modifications: 5' and 3' idT; 2'-OMe purines except ribo g3,g19,a20,a26; 2'-OMe c7,c9,c11,c12,u17,u33,c45; other pyrimidines 2'-F
B9 yielded a concentration for half-maximal inhibition (IC50) in [9] of 0.238 nM.

B10: aptamer ID 26(67) (ssRNA)
RNA: B7 RNA
modifications: 5' PEG40TS2 via ssH linker; 3' idT; 2'-F all pyrimidines; 2'-OMe purines except ribo g3,g19,a20,a26
In [10], B10 came in with a concentration for half-maximal inhibition (IC50) of 0.153 nM.

B11: aptamer ID 26(65) (mixed)
RNA: B7 RNA
modifications: 5' PEG80TS4 via ssH linker; 3' idT; 2'-OMe purines except ribo g3,g19,a20,a26; 2'-F c28,c41,c43; dC27,dC29; other pyrimidines 2'-OMe
For B11, 0.091 nM corresponded to half-maximal inhibition in data set [11] (IC50).

B12: aptamer ID 26(48) (ssRNA)
RNA: B7 RNA
modifications: 5' and 3' idT; 2'-OMe purines except ribo g3,g19,a20,a26; 2'-OMe c7,c11,c12,u17,u18,u33,u37,c45; other pyrimidines 2'-F
The molecule B12 came in with a half-inhibitory concentration (IC50) in data set [12] of 0.053 nM.

B13: aptamer ID 26(60) (ssRNA)
RNA: B7 RNA
modifications: 5' and 3' idT; 2'-OMe purines except ribo g3,g19,a20 and 2'-F a26; 2'-F c27,c28,c29,u39,c41,c43; other pyrimidines 2'-OMe
B13 came in with an IC50 in [13] of 0.105 nM.

B14: aptamer ID 26(39) (ssRNA)
RNA: B7 RNA
modifications: as 26(19) (5' and 3' idT; 2'-F pyrimidines; 2'-OMe purines except ribo g3,g19,a20,a26) but c7 is 2'-OMe; PS between a25 and a26
In [14], B14 had an IC50 of 0.168 nM.

B15: aptamer ID 26(33) (ssRNA)
RNA: B7 RNA
modifications: as 26(19) (5' and 3' idT; 2'-F pyrimidines; 2'-OMe purines except ribo g3,g19,a20,a26) but c12 is 2'-OMe
In data set [15], B15 had a 50% inhibitory concentration (IC50) of 0.294 nM.
